Tests used:
[1] = target: PA-1 cultured ovarian cells (unnamed cell surface lectin receptors); assay: lectin binding to cultured PA-1 cells, lectin alone (method not described)
[2] = target: Jurkat cultured leukemic cells (unnamed cell surface lectin receptors); assay: lectin binding to cultured Jurkat cells, lectin alone (method not described)
[3] = target: COLO 205 cultured colon cells (unnamed cell surface lectin receptors); assay: lectin binding to cultured COLO 205 cells, lectin alone (method not described)
[4] = target: Molt 4 cultured leukemic cells (unnamed cell surface lectin receptors); assay: lectin binding to cultured Molt 4 cells, lectin alone (method not described)
[5] = target: native Sclerotium rolfsii lectin (SRL) (Sclerotium rolfsii); assay: inhibition by mucin of native lectin binding to Molt 4 cells
[6] = target: native Sclerotium rolfsii lectin (SRL) (Sclerotium rolfsii); assay: inhibition by mucin of native lectin binding to COLO 205 cells
[7] = target: native Sclerotium rolfsii lectin (SRL) (Sclerotium rolfsii); assay: inhibition by mucin of native lectin binding to PA-1 cells
[8] = target: native Sclerotium rolfsii lectin (SRL) (Sclerotium rolfsii); assay: inhibition by mucin of native lectin binding to Jurkat cells

Substance | % positive cells [1] [%] | % positive cells [2] [%] | % positive cells [3] [%] | % positive cells [4] [%] | % positive cells (lectin + mucin) [5] [%] | % positive cells (lectin + mucin) [6] [%] | % positive cells (lectin + mucin) [7] [%] | % positive cells (lectin + mucin) [8] [%]
native Sclerotium rolfsii lectin (SRL) | 96.7 | 33.8 | 91.7 | 88.5 | – | – | – | –
mucin | – | – | – | – | 0.24 | 0.99 | 1.63 | 0.5
